The results in this text go back to patent US20240424125A1 (Zymeworks, published 2024).

Substitutions are numbered along the chain they refer to.

The target of assay [1] is T1, human FRα on cells (human, UniProt P15328 25-234). Nature of the assay: cell-based or functional assay.
The target in assay [2] is T2, recombinant His-tagged human FRα (ACROBiosystems) (human, UniProt P15328 25-233).
T2 construct: also called hFRα; hFRα antigen; not shown: His tag
Nature of the assay: SPR (Biacore T200): hFRα amine-coupled to CM5 chip at medium-low antigen density, bivalent FSA injected, 1:1 Langmuir fit, mean of n=2. The procedure:
(§1) CM5 Series S sensor chip, Biacore™ amine coupling kit (NHS, EDC and 1 M ethanolamine), and 10 mM sodium acetate buffers were purchased from GE Healthcare Life Science (Mississauga, ON, Canada). PBS running buffer with 0.05% Tween20 (PBST) was purchased from Teknova Inc. (Hollister, CA). Recombinant human FRα was purchased from ACRObiosystems (Newark, DE).
(§2) Screening of the variants for binding to hFRα antigen was conducted in two steps: capture of hFRα onto surface, followed by injection of three to five concentrations of variant. The hFRα surface was prepared on a CM5 Series S sensor chip by standard amine coupling methods as described by the manufacturer (GE Healthcare Life Science, Mississauga, ON, Canada). The immobilization of the hFRα was performed using Biacore™ T200 immobilization wizard with an amine coupling method aiming for resonance units (RUs) ranging from 5 to 200 RUs. Using multi-cycle kinetics, three to five concentrations of a two-fold dilution series of samples starting at 300 nM with a blank buffer control were injected at 50 uL/min for 180s with a 600s dissociation phase, resulting in a set of sensorgrams with a buffer blank reference. The hFRα surface was regenerated to prepare for the next injection cycle by one pulse of 10 mM glycine/HCl pH 1.5 for 30s at 30 uL/min. Blank-subtracted sensorgrams were analyzed using Biacore™ T200 Evaluation Software v3.0. The blank-subtracted sensorgrams were then fit to the 1:1 Langmuir binding model.
On the technique in general: In SPR one partner is held on a chip, and binding of the other changes the refractive index at the surface.

The target of assay [3] is T2, recombinant His-tagged human FRα …. Nature of the assay: BLI (Octet RED96) as in Example 8: antibody captured, His-tagged hFRα as analyte, mean of n=2. The procedure:
(§3) The assay buffer used was KB buffer (kinetics buffer, composed of PBS pH 7.4, 0.1% BSA, 0.02% Tween 20, 0.05% sodium azide) supplemented with 0.06% Tween 20 and in some instances also with 1% BSA. The experiment was conducted at 30° C. with a shake speed of 1000 rpm.
(§4) Data analysis was performed using Data Analysis Software 9.0 (ForteBio, Fremont CA). The reference-subtracted binding curves were globally fitted to the 1:1 interaction model to generate the binding kinetic parameters kₒₙ, koff, and the dissociation constant KD.
For orientation: BLI is a label-free optical method that tracks binding on a fibre tip over time.

Assay [4] addresses T1, human FRα on cells. Nature of the assay: apparent Kd, flow cytometry on JEG-3 cells (endogenous FRα), as in Example 16. The protocol: (§5) Briefly, cells were seeded at 50,000 cells/well in V-bottom 96-well plates and treated with antibody for 24 hours at 4° C. to prevent internalization. […] Following incubation and washing, fluorescence was detected by flow cytometry on a BD LSRFortessa™ Cell Analyzer (BD Biosciences, Franklin Lake, NJ) with 1,000 minimum events collected per well. AF647/APC-A GeoMean (fluorescence signal geometric mean, proportional to anti-Human AF647 binding) in live cell population was plotted using GraphPad Prism Version 9 (GraphPad Software, San Diego, CA).
Background: Flow cytometry measures light scatter and fluorescence of single cells or particles in a stream.

Assay [5] deals with T1, human FRα on cells. Nature of the assay: apparent Kd, flow cytometry on IGROV-1 cells (endogenous FRα), as in Example 16. The procedure:
as §5

Assay [6] concerns the target T2, recombinant His-tagged human FRα …. Nature of the assay: BLI (Octet RED96): antibody on anti-human IgG Fc capture biosensor, His-tagged hFRα as analyte, 1:1 global fit, mean of n=2. The procedure: as §3, §4
For assay [7] the target is unchanged. Nature of the assay: BLI (Octet RED96): antibody loaded on anti-human IgG Fc capture biosensors, His-tagged hFRα in solution. Six traces with fit lines plateau between about 0.06 and 0.36 nm during 0-400 s association and return to baseline by about 520 s. The legend prints the same globally fitted KD for all six traces (single run; the text prints only the mean of n=2). The protocol: as §3, §4

Assay [8] has the same target. Nature of the assay: SPR (Biacore T200), high antigen density; end of the range tied to v30384 by Table 8.3. The procedure: as §2
The target is the same in assay [9]. Nature of the assay: SPR (Biacore T200): hFRα amine-coupled to CM5 chip at high antigen density, bivalent FSA injected, 1:1 Langmuir fit, mean of n=2. The procedure: as §1, §2
For assay [10], the target named is T1, human FRα on cells. Nature of the assay: apparent Kd, flow cytometry on HEC-1-A cells (endogenous FRα), 24 h at 4°C. The procedure: as §5
The target in assay [11] is T2, recombinant His-tagged human FRα …. Nature of the assay: SPR (Biacore T200): hFRα amine-coupled to CM5 chip at medium antigen density, bivalent FSA injected, 1:1 Langmuir fit, mean of n=2. The protocol: as §1, §2
Assay [12] has as its target T1, human FRα on cells. Nature of the assay: apparent Kd, flow cytometry on JEG-3 cells (endogenous FRα), 24 h at 4°C. The procedure:
as §5

The target in assay [13] is T2, recombinant His-tagged human FRα …. Nature of the assay: BLI (Octet RED96); end of the range tied to v31426 by Table 8.1. The procedure: as §3, §4
For assay [14] the target is unchanged. Nature of the assay: SPR (Biacore T200), high antigen density; end of the range tied to v30399 by Table 8.3. The protocol: as §2
Assay [15] shares this target. Nature of the assay: BLI (Octet RED96); end of the range tied to v30394 by Table 8.1. The protocol: as §3, §4

T2 sequence (P15328 25-233 limits assumed): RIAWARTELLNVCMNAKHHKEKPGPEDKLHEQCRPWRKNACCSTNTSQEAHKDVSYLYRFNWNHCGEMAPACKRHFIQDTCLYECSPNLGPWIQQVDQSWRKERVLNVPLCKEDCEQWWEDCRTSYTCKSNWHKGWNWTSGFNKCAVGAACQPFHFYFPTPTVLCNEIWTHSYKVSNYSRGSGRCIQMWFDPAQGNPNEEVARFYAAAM
T1 sequence (P15328 25-234 limits assumed): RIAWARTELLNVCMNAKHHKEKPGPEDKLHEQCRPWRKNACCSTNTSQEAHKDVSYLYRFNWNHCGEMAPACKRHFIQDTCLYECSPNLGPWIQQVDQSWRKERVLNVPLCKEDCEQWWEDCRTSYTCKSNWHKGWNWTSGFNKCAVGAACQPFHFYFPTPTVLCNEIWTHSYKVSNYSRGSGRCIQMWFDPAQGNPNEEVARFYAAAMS

B1: v30384 (antibody, human IgG1, kappa)
heavy 1: EVQLLESGGGLVQPGGSLRLSCAVSGFSLSSYGVSWVRQAPGKGLEWIGAVNSGGSAYYADSVKGRSTISRDNSKNTVYLQMNSLRAEDTAVYYCARSGSGYPMDYLAIWGQGTLVTVSSASTKGPSVFPLAPSSKSTSGGTAALGCLVKDYFPEPVTVSWNSGALTSGVHTFPAVLQSSGLYSLSSVVTVPSSSLGTQTYICNVNHKPSNTKVDKKVEPKSCDKTHTCPPCPAPELLGGPSVFLFPPKPKDTLMISRTPEVTCVVVDVSHEDPEVKFNWYVDGVEVHNAKTKPREEQYNSTYRVVSVLTVLHQDWLNGKEYKCKVSNKALPAPIEKTISKAKGQPREPQVYVYPPSRDELTKNQVSLTCLVKGFYPSDIAVEWESNGQPENNYKTTPPVLDSDGSFALVSKLTVDKSRWQQGNVFSCSVMHEALHNHYTQKSLSLSPG
heavy 2: not shown
light: DYQMTQSPSSVSASVGDRVTITCRASQSIGDWLAWYQQKPGKAPKLLIYEASTLASGVPSRFSGSGSGTDFTLTISSVQPEDAATYYCQQGYGRSNVDNIFGGGTKVEVKRTVAAPSVFIFPPSDEQLKSGTASVVCLLNNFYPREAKVQWKVDNALQSGNSQESVTEQDSKDSTYSLSSTLTLSKADYEKHKVYACEVTHQGLSSPVTKSFNRGEC
notes: Humanized full-size IgG1/kappa antibody with heterodimeric Fc (HetFc); also called humanized variant v30384; parental humanized
In the case of B1, the “fold increase in internalized fluorescence compared to farletuzumab; IGROV-1 cells, 6-hour incubation, 5 nM” value with human FRα on cells [1] stood at 19.1 fold. Besides, the “fold increase in internalized fluorescence compared to farletuzumab; IGROV-1 cells, 6-hour incubation, 25 nM” value with human FRα on cells [1] is 6.1 fold. Also, the “fold increase in internalized fluorescence compared to farletuzumab; IGROV-1 cells, 24-hour incubation, 5 nM” value with human FRα on cells [1] turned out to be 4.7 fold. Further, in the assay with human FRα on cells [1], the “fold increase in internalized fluorescence compared to farletuzumab; IGROV-1 cells, 24-hour incubation, 25 nM” value was 3.9 fold. The “fold increase in internalized fluorescence compared to mirvetuximab; IGROV-1 cells, 6-hour incubation, 5 nM” value with human FRα on cells [1] stood at 2.6 fold. Also, the “fold increase in internalized fluorescence compared to mirvetuximab; IGROV-1 cells, 6-hour incubation, 25 nM” value with human FRα on cells [1] worked out at 3.3 fold. Further, in the assay with human FRα on cells [1], the “fold increase in internalized fluorescence compared to mirvetuximab; IGROV-1 cells, 24-hour incubation, 5 nM” value was found to be 1.9 fold. Besides, the “fold increase in internalized fluorescence compared to mirvetuximab; IGROV-1 cells, 24-hour incubation, 25 nM” value with human FRα on cells [1] was 2.1 fold. The Kd in assay [2] came to 3.76 nM; in assay [3] it was 127 nM; with human FRα on cells [4], 0.5 nM; with human FRα on cells [5], 1.38 nM; in assay [6] it was 110 nM; in assay [7] it was 109 nM. The Kd was 0.79 nM in assay [9], 0.07 nM with human FRα on cells [10], 2.58 nM in [11] and 0.31 nM with human FRα on cells [12]. The “fold lower KD in FSA compared to one-armed antibody (OAA) format” value in [8] was found to be 181 fold.

B2: v31426 (antibody, human IgG1, kappa)
heavy: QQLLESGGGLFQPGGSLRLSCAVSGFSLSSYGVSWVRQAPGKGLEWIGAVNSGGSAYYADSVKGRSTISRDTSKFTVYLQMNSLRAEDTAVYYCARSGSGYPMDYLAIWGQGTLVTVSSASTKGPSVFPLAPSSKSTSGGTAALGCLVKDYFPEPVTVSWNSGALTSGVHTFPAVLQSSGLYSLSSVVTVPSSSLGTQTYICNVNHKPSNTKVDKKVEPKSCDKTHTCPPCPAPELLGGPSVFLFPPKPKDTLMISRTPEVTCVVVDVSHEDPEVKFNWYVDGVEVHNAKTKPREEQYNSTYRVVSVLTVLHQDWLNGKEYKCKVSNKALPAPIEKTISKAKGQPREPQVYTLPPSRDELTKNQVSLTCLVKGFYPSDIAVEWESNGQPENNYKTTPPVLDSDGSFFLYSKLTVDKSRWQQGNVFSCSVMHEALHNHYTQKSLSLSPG
light: B1 light
notes: Humanized IgG1/kappa, HomoFc; also called 3gH4L
With B2, the “fold reduced affinity compared to the parental chimera antibody v23924” value in assay [13] was 8 fold. Further, the Kd in assay [6] amounted to 210 nM.

B3: v30399 (antibody, human IgG1, kappa)
heavy 1: B1 heavy 1 with L4V, S62W, V63A
heavy 2: not shown
light: B1 light
notes: Humanized IgG1/kappa, HetFc; also called 4bH4L
With B3, the Kd in [2] came to 3.71 nM; in assay [6], 69 nM; in [9], 0.709 nM; in assay [11], 2.67 nM. In assay [14], the “fold lower KD in FSA compared to one-armed antibody (OAA) format” value worked out at 116 fold.

B4: v30394 (antibody, human IgG1, kappa)
heavy 1: B1 heavy 1 with S62W, V63A
heavy 2: not shown
light: B1 light
notes: Humanized IgG1/kappa, HetFc; also called 4H4L
On to B4, for which the Kd in [6] was 63 nM. In addition, the “fold reduced affinity compared to the parental chimera antibody v23924” value in [15] was 2 fold.
